Data: the supplement of paper PMC12783771
± gives the standard deviation of the averaged measurements.

B1: library; numbered along this chain (parent)
chain: MNIQIGELAKRTACPVVTIRFYEQEGLLPPPGRSRGNFRLYGEEHVERLQFIRHCRSLDMPLSDVRTLLSYRKRPDQDCGEVNMLLDEHIRQVESRIGALLELKHHLVELREACSGARPAQSCGILQGLSDCVCDTRGTTAHPSD

How the values were obtained:
[1] = variants of: B1; assay: sfGFP reporter fluorescence (15 h) (µM FITC); higher = higher leak; settings: library round: Round 0; ligand: none
Summary of the method: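 An Echo normalized PCR-made linear PbrR templates to 5 nM and assembled 1 μL reactions in BL21 Star (DE3) PANOx-SP extract carrying the pPbrR-sfGFP reporter plasmid and 30 μg/mL GamS. Reactions received 1 µM lead chloride, 30 µM zinc acetate or no metal and stood 15 hr at 30 °C. Fluorescence at 485/528 nm (Synergy Neo2) was converted with FITC standard curves made in 50 mM sodium borate pH 8.5. Endpoint sfGFP signal is given in µM FITC, from up to three biological replicates.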

[2] = variants of: B1; assay: sfGFP reporter fluorescence (15 h) (µM FITC); higher = stronger transcriptional activation; settings: library round: Round 0
Protocol: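 Cell-free (BL21 Star DE3 extract, PANOx-SP) biosensing: 1 µL Echo-assembled reactions with linear PbrR variant templates (5 nM) and pPbrR-sfGFP reporter, with 1 µM Pb (lead chloride), 30 µM Zn (zinc acetate) or no ligand; endpoint sfGFP fluorescence after 15 h at 30 °C, calibrated as µM FITC. Round 0 library (alanine scan, site saturation, combinatorial) of PbrR from Cupriavidus metallidurans; 2 biological replicates.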

Variant	sfGFP reporter fluorescence [1]	sfGFP reporter fluorescence ([2]; ligand: 1 µM Pb)	sfGFP reporter fluorescence ([2]; ligand: 30 µM Zn)
G32A	0.0614 ± 0.0013	0.0586 ± 0.0052	0.467 ± 0.086
I125K	0.0599 ± 0.0029	0.05864 ± 0.00052	0.0564 ± 0.0031
I125W	0.0588 ± 0.0018	0.0596 ± 0.0013	0.0564 ± 0.0026
I125G	0.0546	0.0559 ± 0.00078	0.0504 ± 0.0029
I125V	0.0583	0.0627	0.183 ± 0.0036
I125F	0.0553 ± 0.001	0.0579 ± 0.0021	0.05259 ± 0.00026
H45A	0.0599 ± 0.0018	0.07275 ± 0.00026	0.687 ± 0.088
E109H	0.0581 ± 0.0013	0.0867 ± 0.0075	0.456 ± 0.012
E109S	0.0592 ± 0.00078	0.0803 ± 0.0026	1.47 ± 0.04
E109C	0.0596 ± 0.00078	0.0867 ± 0.0054	1.54 ± 0.077
L100A	0.0803 ± 0.0015	0.131 ± 0.0044	0.663 ± 0.2
M60L G128M	0.939 ± 0.012	2.69 ± 0.78	4.69 ± 0.071
E112I	0.0542 ± 0.0015	0.06175 ± 0.00026	0.282 ± 0.021
V133A	0.06341 ± 0.00052	0.0746 ± 0.007	0.769 ± 0.021
M60Q	0.0603 ± 0.00078	0.0588 ± 0.0018	0.0614 ± 0.0013
M60Y	0.0621 ± 0.0013	0.0662 ± 0.0013	0.12 ± 0.00078
M60C	0.06029 ± 0.00026	0.06304 ± 0.00052	0.06615 ± 0.00026
M60A	0.0643 ± 0.0029	0.0619 ± 0.001	0.0713 ± 0.007
V82E	0.0568 ± 0.0026	0.0586 ± 0.0015	0.0541 ± 0.0029
V82I	0.0572 ± 0.0015	0.0658 ± 0.0023	0.676 ± 0.0088
V82Y	0.0588 ± 0.0034	0.05864 ± 0.00052	0.0544 ± 0.0013
V82F	0.0572	0.0572 ± 0.0015	0.053 ± 0.0023
V82K	0.0601 ± 0.0021	0.0566 ± 0.0039	0.0563 ± 0.0039

Variant	sfGFP reporter fluorescence [1]	sfGFP reporter fluorescence ([2]; ligand: 1 µM Pb)	sfGFP reporter fluorescence ([2]; ligand: 30 µM Zn)
V82H	0.0594 ± 0.0015	0.05974 ± 0.00052	0.0586 ± 0.001
L58M	0.0583	0.0581 ± 0.00078	0.0748 ± 0.0015
L58G	0.0548 ± 0.00078	0.0548 ± 0.0013	0.052 ± 0.001
L58N	0.05644 ± 0.00052	0.05791 ± 0.00052	0.0548 ± 0.0023
L58A	0.0601 ± 0.001	0.05681 ± 0.00052	0.0563 ± 0.0049
L27C	0.06285 ± 0.00026	0.0641 ± 0.001	0.142 ± 0.0023
L27R	0.0656 ± 0.0026	0.0658 ± 0.0013	0.0665 ± 0.00078
L27I	0.0596 ± 0.00078	0.0803 ± 0.0015	0.555 ± 0.033
L27Y	0.066	0.0792 ± 0.0021	0.254 ± 0.011
L27K	0.064 ± 0.0013	0.06084 ± 0.00052	0.0614 ± 0.0018
L27G	0.0608 ± 0.001	0.0597 ± 0.0015	0.0649 ± 0.0036
C14A	0.0687 ± 0.0018	0.0726 ± 0.0015	0.317 ± 0.01
R111H	0.05791 ± 0.00052	0.0652 ± 0.0026	0.2344 ± 0.0013
R111K	0.0575 ± 0.0015	0.06194 ± 0.00052	0.149 ± 0.02
R111E	0.05864 ± 0.00052	0.0684 ± 0.00078	0.267 ± 0.013
R111W	0.05937 ± 0.00052	0.0632 ± 0.0018	0.189 ± 0.0042
R111L	0.0552 ± 0.0013	0.06469 ± 0.00026	0.2 ± 0.016
C55Y	0.0601 ± 0.0021	0.0623 ± 0.001	0.06011 ± 0.00052
C55D	0.0608 ± 0.0021	0.061 ± 0.0018	0.0592 ± 0.00078
C55V	0.0629 ± 0.0029	0.0773 ± 0.0047	0.273 ± 0.0029
C55S	0.06029 ± 0.00026	0.066 ± 0.001	0.203 ± 0.019
V108R	0.059	0.0788 ± 0.0021	0.8752 ± 0.0047
P119A	0.05992 ± 0.00026	0.0629 ± 0.0029	0.477 ± 0.05

Variant	sfGFP reporter fluorescence [1]	sfGFP reporter fluorescence ([2]; ligand: 1 µM Pb)	sfGFP reporter fluorescence ([2]; ligand: 30 µM Zn)
D131P	0.0546 ± 0.0015	0.0619 ± 0.0021	0.134 ± 0.015
D131I	0.0607 ± 0.0029	0.0797 ± 0.0049	0.832 ± 0.073
D131G	0.0566 ± 0.00078	0.0991 ± 0.0034	0.604 ± 0.15
D131M	0.0687 ± 0.0018	0.126 ± 0.0073	1.17 ± 0.17
E94W	0.0577 ± 0.0039	0.05516 ± 0.00026	0.143 ± 0.0054
E94C	0.0645 ± 0.0021	0.115 ± 0.011	0.946 ± 0.18
E94P	0.0535 ± 0.0026	0.0533 ± 0.0023	0.05571 ± 0.00052
Y22K	0.0625 ± 0.0018	0.0627 ± 0.001	0.0614 ± 0.0029
Y22H	0.063 ± 0.0015	0.06249 ± 0.00026	0.0651 ± 0.0018
Y22R	0.0678 ± 0.00052	0.06579 ± 0.00026	0.0689 ± 0.0031
Y22P	0.0618 ± 0.0018	0.06066 ± 0.00026	0.0621 ± 0.0023
Y22Q	0.0627 ± 0.001	0.0612	0.0607 ± 0.0023
Y71A	0.05974 ± 0.00052	0.0575	0.22 ± 0.0036
V46A	0.0619 ± 0.0031	0.0757 ± 0.0023	0.682 ± 0.097
V46C	0.0531 ± 0.0026	0.0781 ± 0.0021	0.574 ± 0.01
V46E	0.0579	0.0806 ± 0.0015	0.724 ± 0.053
G6H	0.06267 ± 0.00052	0.0603 ± 0.00078	0.0698 ± 0.0029
G6L	0.0607 ± 0.00078	0.06157 ± 0.00052	0.0682 ± 0.001
Y41P	0.0583 ± 0.001	0.0597 ± 0.001	0.0601 ± 0.0026
Y41F	0.0572 ± 0.0031	0.1001 ± 0.00052	1.19 ± 0.041
Y41M	0.0629 ± 0.00078	0.0596 ± 0.0023	0.113 ± 0.0078
Y41D	0.0601 ± 0.001	0.0607 ± 0.00078	0.0621 ± 0.0023
Y41A	0.0616 ± 0.0042	0.0605	0.0651 ± 0.0013

Variant	sfGFP reporter fluorescence [1]	sfGFP reporter fluorescence ([2]; ligand: 1 µM Pb)	sfGFP reporter fluorescence ([2]; ligand: 30 µM Zn)
Y41N	0.0594 ± 0.0031	0.0601	0.0597 ± 0.0015
Y41W	0.0586	0.0658 ± 0.0029	0.1977 ± 0.00078
C134N	0.06505 ± 0.00026	0.081 ± 0.0031	1.39 ± 0.12
C134E	0.0608 ± 0.001	0.0651 ± 0.0034	0.929 ± 0.095
C134P	0.0667 ± 0.00052	0.0847 ± 0.011	1.54 ± 0.058
D64K K104V L107C	2.05 ± 0.034	4.21 ± 0.2	4.1 ± 0.055
L85C	0.0607 ± 0.0018	0.0577 ± 0.0013	0.117 ± 0.0039
L85P	0.057 ± 0.0023	0.05809 ± 0.00026	0.0555 ± 0.0013
R20E	0.0603 ± 0.0023	0.0616 ± 0.0015	0.06175 ± 0.00026
R20I	0.0585 ± 0.00078	0.06285 ± 0.00026	0.142 ± 0.0057
R20T	0.0625 ± 0.0018	0.0612 ± 0.0021	0.06102 ± 0.00026
D64S	0.0944 ± 0.0013	0.22 ± 0.013	3.02 ± 0.097
D64T	0.217 ± 0.0054	0.331 ± 0.051	2.74 ± 0.3
D64M	2.97 ± 0.48	3.46 ± 0.68	4.15 ± 0.31
D64K	0.154 ± 0.049	0.382 ± 0.023	3.306 ± 0.03
T136A	0.0601 ± 0.001	0.0696 ± 0.0031	0.668 ± 0.013
V16H	0.06542 ± 0.00026	0.109 ± 0.0086	0.447 ± 0.0096
V16N	0.0643 ± 0.0013	0.08686 ± 0.00052	0.487 ± 0.011
V16Y	0.0629 ± 0.00078	0.0678 ± 0.001	0.119 ± 0.0018
V16S	0.06707 ± 0.00052	0.1145 ± 0.00026	1.22 ± 0.028
